{"source": "the supplement of paper PMC10126150", "note": "± gives the standard deviation of the averaged measurements."}
{"system": "ATP", "test": "switch fluorescence ratio, 500 uM ATP over buffer (Cy3 cluster intensity, sum of 5 cycles each) (fold (ratio)); higher = stronger signal-on switching upon ATP binding; sequences stand for … in TCGTCGGCAGCGTCAGATGTGTATAAGAGACAGTTTTTTTTTTTTTTTTTTTTTTTTT…TC", "conditions": "aptamer strand: ATP DNA aptamer (quencher-CACCTGGGGGAGTATTGCGGAGGAAGG + anchor), 100 nM annealed; ATP concentration: 500 uM", "procedure,_shortened": "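Exposure to 500 uM ATP lasted 15 min at 22 °C before imaging, and a selection-buffer image was taken beforehand, for Cy3-labelled switching-strand clusters on a modified Illumina MiSeq flow-cell annealed to 100 nM quencher-labelled ATP aptamer. Five buffer/ATP cycles were run with NaOH stripping and re-annealing between them. The fluorescence ratio per cluster is summed target-cycle over summed buffer-cycle Cy3 intensity, averaged per switch-domain sequence. Clusters outside 100-1000 RFU were excluded.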"}
{"sequence": "TGGGATGTG", "switch fluorescence ratio": "0.9906 ± 0.0049"}
{"sequence": "TGGGATTAGG", "switch fluorescence ratio": "0.969 ± 0.03"}
{"sequence": "TGGGATTCCT", "switch fluorescence ratio": "1.03 ± 0.073"}
{"sequence": "TGGGATTGTA", "switch fluorescence ratio": "0.987 ± 0.024"}
{"sequence": "TGGGCAATGG", "switch fluorescence ratio": "1.833 ± 0.018"}
{"sequence": "TGGGCAGGGC", "switch fluorescence ratio": "1.04 ± 0.058"}
{"sequence": "TGGGCCATGT", "switch fluorescence ratio": "0.9791 ± 0.0065"}
{"sequence": "TGGGCCTTGT", "switch fluorescence ratio": "1.023 ± 0.0033"}
{"sequence": "TGGGCGGTA", "switch fluorescence ratio": "0.963 ± 0.026"}
{"sequence": "TGGGCGTAG", "switch fluorescence ratio": "0.993 ± 0.011"}
{"sequence": "TGGGCGTTGC", "switch fluorescence ratio": "1.01 ± 0.018"}
{"sequence": "TGGGCTAATT", "switch fluorescence ratio": "1.02 ± 0.04"}
{"sequence": "TGGGCTACTG", "switch fluorescence ratio": "1.04 ± 0.04"}
{"sequence": "TGGGCTGGGG", "switch fluorescence ratio": "1.04 ± 0.023"}
{"sequence": "TGGGCTTCAT", "switch fluorescence ratio": "0.998 ± 0.028"}
{"sequence": "TGGGCTTTAG", "switch fluorescence ratio": "0.967 ± 0.041"}
{"sequence": "TGGGGAAAAT", "switch fluorescence ratio": "1.033 ± 0.0065"}
{"sequence": "TGGGGAAAGC", "switch fluorescence ratio": "0.983 ± 0.014"}
{"sequence": "TGGGGAAGTG", "switch fluorescence ratio": "0.987 ± 0.025"}
{"sequence": "TGGGGAATCG", "switch fluorescence ratio": "1.01 ± 0.046"}
{"sequence": "TGGGGACAAT", "switch fluorescence ratio": "0.987 ± 0.018"}
{"sequence": "TGGGGACCCA", "switch fluorescence ratio": "0.991 ± 0.018"}
{"sequence": "TGGGGACCGT", "switch fluorescence ratio": "1 ± 0.03"}
{"sequence": "TGGGGACGAC", "switch fluorescence ratio": "1.02 ± 0.063"}
{"sequence": "TGGGGACTAT", "switch fluorescence ratio": "1.02 ± 0.012"}
{"sequence": "TGGGGAGTAA", "switch fluorescence ratio": "1.015 ± 0.0092"}
{"sequence": "TGGGGAGTGT", "switch fluorescence ratio": "0.9849 ± 0.0076"}
{"sequence": "TGGGGATAAT", "switch fluorescence ratio": "1.01 ± 0.028"}
{"sequence": "TGGGGATAGT", "switch fluorescence ratio": "0.968 ± 0.018"}
{"sequence": "TGGGGATATA", "switch fluorescence ratio": "1.029 ± 0.0093"}
{"sequence": "TGGGGATATT", "switch fluorescence ratio": "0.9965 ± 0.0016"}
{"sequence": "TGGGGATGTA", "switch fluorescence ratio": "0.976 ± 0.014"}
{"sequence": "TGGGGCAAAT", "switch fluorescence ratio": "1.01 ± 0.034"}
{"sequence": "TGGGGCAATT", "switch fluorescence ratio": "1.1 ± 0.06"}
{"sequence": "TGGGGCACCC", "switch fluorescence ratio": "0.985 ± 0.01"}
{"sequence": "TGGGGCATCG", "switch fluorescence ratio": "1 ± 0.029"}
{"sequence": "TGGGGCCGCG", "switch fluorescence ratio": "1.048 ± 0.0092"}
{"sequence": "TGGGGCGCCG", "switch fluorescence ratio": "1.13 ± 0.18"}
{"sequence": "TGGGGCGCTT", "switch fluorescence ratio": "1 ± 0.033"}
{"sequence": "TGGGGCTATA", "switch fluorescence ratio": "0.995 ± 0.037"}
{"sequence": "TGGGGCTTTA", "switch fluorescence ratio": "1.06 ± 0.031"}
{"sequence": "TGGGGGAAAT", "switch fluorescence ratio": "1.25 ± 0.74"}
{"sequence": "TGGGGGAAGC", "switch fluorescence ratio": "0.984 ± 0.026"}
{"sequence": "TGGGGGACTG", "switch fluorescence ratio": "1.05 ± 0.054"}
{"sequence": "TGGGGGAGCA", "switch fluorescence ratio": "0.9811 ± 0.0094"}
{"sequence": "TGGGGGATCA", "switch fluorescence ratio": "0.978 ± 0.029"}
{"sequence": "TGGGGGATCT", "switch fluorescence ratio": "1 ± 0.038"}
{"sequence": "TGGGGGCGGA", "switch fluorescence ratio": "1.01 ± 0.032"}
{"sequence": "TGGGGGCGTA", "switch fluorescence ratio": "0.9641 ± 0.0025"}
{"sequence": "TGGGGGCTTT", "switch fluorescence ratio": "0.99 ± 0.023"}
{"sequence": "TGGGGGGATT", "switch fluorescence ratio": "1.01 ± 0.045"}
{"sequence": "TGGGGGGCCT", "switch fluorescence ratio": "0.991 ± 0.02"}
{"sequence": "TGGGGGGCTA", "switch fluorescence ratio": "1.02 ± 0.056"}
{"sequence": "TGGGGGGGAA", "switch fluorescence ratio": "0.999 ± 0.021"}
{"sequence": "TGGGGGGGCA", "switch fluorescence ratio": "1 ± 0.012"}
{"sequence": "TGGGGGGGGG", "switch fluorescence ratio": "1.02 ± 0.079"}
{"sequence": "TGGGGGGTAT", "switch fluorescence ratio": "1 ± 0.03"}
{"sequence": "TGGGGGTAAG", "switch fluorescence ratio": "0.989 ± 0.03"}
{"sequence": "TGGGGGTATG", "switch fluorescence ratio": "1 ± 0.02"}
{"sequence": "TGGGGGTGCC", "switch fluorescence ratio": "0.9758 ± 0.0037"}
{"sequence": "TGGGGGTGTG", "switch fluorescence ratio": "1.04 ± 0.082"}
{"sequence": "TGGGGGTTAT", "switch fluorescence ratio": "0.993 ± 0.042"}
{"sequence": "TGGGGGTTCT", "switch fluorescence ratio": "1.02 ± 0.057"}
{"sequence": "TGGGGTAAAA", "switch fluorescence ratio": "0.99 ± 0.0091"}
{"sequence": "TGGGGTAAAT", "switch fluorescence ratio": "1.01 ± 0.017"}
{"sequence": "TGGGGTAGAG", "switch fluorescence ratio": "0.97 ± 0.041"}
{"sequence": "TGGGGTAGC", "switch fluorescence ratio": "0.9979 ± 0.0088"}
{"sequence": "TGGGGTAGCC", "switch fluorescence ratio": "0.932 ± 0.029"}
{"sequence": "TGGGGTAGCG", "switch fluorescence ratio": "0.998 ± 0.043"}
{"sequence": "TGGGGTAGCT", "switch fluorescence ratio": "0.997 ± 0.015"}
{"sequence": "TGGGGTAGGC", "switch fluorescence ratio": "1.02 ± 0.034"}
{"sequence": "TGGGGTCAGC", "switch fluorescence ratio": "1.001 ± 0.0097"}
{"sequence": "TGGGGTCGCT", "switch fluorescence ratio": "0.9829 ± 0.001"}
{"sequence": "TGGGGTTAAG", "switch fluorescence ratio": "0.977 ± 0.025"}
{"sequence": "TGGGGTTAAT", "switch fluorescence ratio": "0.997 ± 0.028"}
{"sequence": "TGGGGTTAGT", "switch fluorescence ratio": "0.979 ± 0.014"}
{"sequence": "TGGGGTTATT", "switch fluorescence ratio": "0.974 ± 0.0098"}
{"sequence": "TGGGGTTCAG", "switch fluorescence ratio": "1.01 ± 0.019"}
{"sequence": "TGGGGTTCTT", "switch fluorescence ratio": "0.993 ± 0.034"}
{"sequence": "TGGGGTTGCG", "switch fluorescence ratio": "0.981 ± 0.032"}
{"sequence": "TGGGGTTTAG", "switch fluorescence ratio": "0.99 ± 0.024"}
{"sequence": "TGGGTAAAAA", "switch fluorescence ratio": "0.995 ± 0.014"}
{"sequence": "TGGGTAAAGA", "switch fluorescence ratio": "0.981 ± 0.049"}
{"sequence": "TGGGTAAGGG", "switch fluorescence ratio": "1.01 ± 0.03"}
{"sequence": "TGGGTAATGG", "switch fluorescence ratio": "1.01 ± 0.038"}
